The target in the experiment is T1, receptor binding domain (RBD) of wildtype SARS-CoV-2 spike (residues 319-541) (SARS-CoV-2, UniProt P0DTC2 319-541).
T1 construct: range 319-541
Kind of experiment: SPR, purified ACE2 protein on purified RBD of SARS-CoV-2 spike. In general terms: Surface plasmon resonance follows binding to a sensor surface in real time, without labels.

B1: purified human ACE2 mutant Q24del (receptor)
chain: STIEEAKTFLDKFNHEAEDLFYQSSLASWNYNTNITEENVQNMNNAGDKWSAFLKEQSTLAQMYPLQEIQNLTVKLQLQALQQNGSSVLSEDKSKRLNTILNTMSTIYSTGKVCNPDNPQECLLLEPGLNEIMANSLDYNERLWAWESWRSEVGKQLRPLYEEYVVLKNEMARANHYEDYGDYWRGDYEVNGVDGYDYSRGQLIEDVEHTFEEIKPLYEHLHAYVRAKLMNAYPSYISPIGCLPAHLLGDMWGRFWTNLYSLTVPFGQKPNIDVTDAMVDQAWDAQRIFKEAEKFFVSVGLPNMTQGFWENSMLTDPGNVQKAVCHPTAWDLGKGDFRILMCTKVTMDDFLTAHHEMGHIQYDMAYAAQPFLLRNGANEGFHEAVGEIMSLSAATPKHLKSIGLLSPDFQEDNETEINFLLKQALTIVGTLPFTYMLEKWRWMVFKGEIPKDQWMKKWWEMKREIVGVVEPVPHDETYCDPASLFHVSNDYSFIRYYTRTLYQFQFQEALCQAAKHEGPLHKCDISNSTEAGQKLFNMLRLGKSEPWTLALENVVGAKNMNVRPLLNYFEPLFTWLKDQNKNSFVGWSTDWSPYAD
What is called Kd is a measure of binding affinity in units of concentration. A higher Kd goes with weaker binding. B1 gave a Kd of 416 nM.
